The target of the assay is T1, synthetic LEAP2 peptide (mature peptide of human LEAP2) (human).
T1 peptide: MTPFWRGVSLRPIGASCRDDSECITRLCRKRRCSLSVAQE
As to the kind of experiment: cell-based or functional assay.

B1: anti-LEAP2 monoclonal antibody M1/M2 (antibody, V domains shown)
VH: EVQLQQSGTVLARPGASVKMSCKASGYTFTSYWMHWVKQRPGQGLEWIGAIYPGNSDTSYKQKFKGKAKLTAVTSASTVYMELSSLTDEDSAVYYCTYGKEEYLFAMDYWGQGTSVTVSS
VL: not shown
B1: the “EC50 of blocking LEAP2 inhibition of GHSR activity (antibody mixed with LEAP2, antagonist format, GHSR-stable cell line)” value was determined as 0.17 µM.

B2: anti-LEAP2 monoclonal antibody M18 (antibody, V domains shown)
VH: EIQLQQSGPELMKPGASVKISCKASGYSFTNYYIHWVKQSHGKSLEWIGYIDPFNGGTNYNQKFKGKATLTVDKSSSTAYMHLSSLTFEDSAVYYCARRGYYYGFTYWGQGTLVTVSA
VL: DIVLTQSPASLAVSLGQRATISCKASQSVDYDGDSYMNWYQQKPGQPPKLLIYTASNLESGIPARFSGSGSGTDFTLNIHPVEEEDAATYYCQQSNEDPYTFGGGTKLEIK
With B2, the “EC50 of blocking LEAP2 inhibition of GHSR activity (antibody mixed with LEAP2, antagonist format, GHSR-stable cell line)” value worked out at 0.68 µM.

These data come from patent US20210101973A1 (NGM BIOPHARMACEUTICALS, published 2021).
